Here are results for one protein from publication PMC11283288 (Nature, 2024).

The data set concerns the molecule itself. In words: cryo-EM structure.

B1: Full-length GSDMD(D275A), C-terminal Flag, palmitoylated (natural protein, human, UniProt P57764 1-484, looked up)
chain: MGSAFERVVRRVVQELDHGGEFIPVTSLQSSTGFQPYCLVVRKPSSSWFWKPRYKCVNLSIKDILEPDAAEPDVQRGRSFHFYDAMDGQIQGSVELAAPGQAKIAGGAAVSDSSSTSMNVYSLSVDPNTWQTLLHERHLRQPEHKVLQQLRSRGDNVYVVTEVLQTQKEVEVTRTHKREGSGRFSLPGATCLQGEGQGHLSQKKTVTIPSGSTLAFRVAQLVIDSDLDVLLFPDKKQRTFQPPATGHKRSTSEGAWPQLPSGLSMMRCLHNFLTAGVPAEGAFTEDFQGLRAEVETISKELELLDRELCQLLLEGLEGVLRDQLALRALEEALEQGQSLGPVEPLDGPAGAVLECLVLSSGMLVPELAIPVVYLLGALTMLSETQHKLLAEALESQTLLGPLELVGSLLEQSAPWQERSTMSLPPGLLGNSWGEGAPAWVLLDECGLELGEDTPHVCWEPQAQGRMCALYASLALLSGLSQEPH
modifications: S-palmitoylation at Cys191
With B1, the “stoichiometry N” value worked out at 33.

The stoichiometry N is the number of molecules, sites or subunits per partner or assembly.
